Drawing on article PMC2649101, this text covers percent present as dimer and stoichiometry N for one substance.

The target in this assay is GCaMP2 [GFP: P42212]. Nature of the assay: SEC.

“GCaMP2 (from UniProt P42212 149-238; P42212 1-144)” displayed a percent present as dimer at the concentrations seen in the brain slice (∼10 μM) of 5% and a stoichiometry N of 2.
